Among the data in paper PMC6395885 are fold change of the dimer band, 100 µM H2O2 against 0 µM H2O2 and fold change of co-precipitated Ref-1, hypoxia against normoxia values, retold here.

The target of test [1] is protein kinase A (PKA) regulatory subunit RI (human (endogenous in HPAEC)) (UniProt P10644). The test can be described thus: non-reducing SDS-PAGE with Western blot.
Test [2] deals with phosphorylated cAMP response element-binding protein (CREB) (human (endogenous in HPAEC)). The test can be described thus: co-IP.
Chain of phosphorylated cAMP response element-binding protein (CREB) (human (endogenous in HPAEC)) (P16220 whole entry): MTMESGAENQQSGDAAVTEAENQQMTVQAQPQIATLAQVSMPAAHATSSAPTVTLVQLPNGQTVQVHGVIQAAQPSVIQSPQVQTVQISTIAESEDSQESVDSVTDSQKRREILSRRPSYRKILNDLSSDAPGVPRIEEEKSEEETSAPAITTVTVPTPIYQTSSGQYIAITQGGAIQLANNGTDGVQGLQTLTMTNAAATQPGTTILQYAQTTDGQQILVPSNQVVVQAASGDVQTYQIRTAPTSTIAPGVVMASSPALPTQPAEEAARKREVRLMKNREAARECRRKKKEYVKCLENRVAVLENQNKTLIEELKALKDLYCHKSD

The substance “protein kinase A (PKA) regulatory subunit RI (from UniProt P10644 1-381) (natural protein)” came in with a fold change of the dimer band, 100 µM H2O2 against 0 µM H2O2 in test [1] of 3.3 fold.

Consider “redox factor 1 (Ref-1) (from UniProt P27695 1-318) (natural protein)”, for which the fold change of co-precipitated Ref-1, hypoxia against normoxia in test [2] is 1.81 fold.
